Test results as given in the supplement of paper PMC9170038.

Tested on: MS2 coat protein
Assay: apparent KD of MS2 coat protein; designed switch direction (-1 OFF switch, 1 ON switch): -1; higher = weaker reporter binding
Outline: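 Apparent KD, taken as the median over clusters for each design, was obtained by curve-fitting normalised cluster fluorescence. Designed RNA switches had been transcribed on Illumina chips by stalled E. coli RNA polymerase and titrated with SNAP-549-labelled MS2 coat protein, doubling from 0.7 or 1.5 nM to 3 µM.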

[1] = input ligand: microRNA oligo, concentration not stated
[2] = Eterna round: R95, input ligand: FMN 200 uM
[3] = Eterna round: R95, input ligand: microRNA oligo, concentration not stated
[4] = Eterna round: R95, input ligand: none

Sequence | apparent KD of MS2 coat protein (input ligand: FMN 200 uM) [nM] | apparent KD of MS2 coat protein [1] [nM] | apparent KD of MS2 coat protein (input ligand: none) [nM] | apparent KD of MS2 coat protein [2] [nM] | apparent KD of MS2 coat protein [3] [nM] | apparent KD of MS2 coat protein [4] [nM]
CAGGAUAGAGGAUAUACAUAGAUACAGAUUCGUGUGAUCCUACAUGAGGAUCACCCAUGUAGAAGGCUAUCCUG [Fiskers Ex 2 - 23] (Eterna round: R96, puzzle: Exclusion 2) | 82 | 392 | 587 | – | – | –
ACGCCCUGAGGAUAUCUUAUCCCGUACAUGAGGAUCACCCAUGUUUUCCUCCGGGCUUCGAGAGAAGGCAGGCCCA [Armus14] (Eterna round: R97, puzzle: Exclusion 5) | 88 | – | 39 | – | – | –
AAUAAGCGAGGAUAUGCGGGCGGGUGCGGCCAGCCGAUGUGACAUGAGGAUCACCCAUGUAGAAGGCGCAAUAA [Excls2-VI] (puzzle: Exclusion 2) | – | – | – | 15.9 | 11.4 | 10.7
UGAUCUAGCGGAGGAUAUACAUGAGGAUCACCCAUGUAAAUCGCUUUACCGUAGUGAAGCAUCAUGUAGAAGGCCGCUAGAUCU [MOD3 ENG2 3.62 by JL] (Eterna round: R96, puzzle: Exclusion NG 2) | 59.3 | 480 | 592 | – | – | –
AAUAGGACAGGAUAUCCGGAGUCGAACAUGAGGAUCACCCAUGUGAUGAGGAUGUUCGCUGGAGAAGGGUCUGGCU [Atisdiis] (puzzle: Exclusion 5) | – | – | – | 83.9 | 124 | 176
AGUACUAACACGAAAGUGUUAGUACAAUAAGCUUGUGGUACAUGAGGAUCACCCAUGUCCUCAUAAGCUCGUCUUAU [JL-sv3-2.13 mat747 mod] (puzzle: Sensor v3, turn-off variant 2) | – | – | – | 22.5 | 62.2 | 20.7
CAAUUCUGAGGAUAUCGAUUUUUGUACAUGAGGAUCACCCAUGUCCUUUUUAUUUAAUCCCGAGAAGGCAGUGUAU [JR_E5_Sub097] (puzzle: Exclusion 5) | – | – | – | – | 23.8 | –
CAAAAGGAAGGAUAUGAUAAGCAGGACAUGAGGAUCACCCAUGUGACUGCCUCGUGGACAUCAGAAGGUCCAGGAC [Erqureorle] (puzzle: Exclusion 5) | – | – | – | 43.2 | 17.2 | 13.8
AAUAACAGAGGAUAUACUAUUUUAUGUGUUUGUUGUUUUGAACAUGAGGAUCACCCAUGUAGAAGGCUGAUUGA [JMF 80] (puzzle: Exclusion 2) | – | – | – | – | 39.6 | –
UUAAUUAAUUAACGCAGCAAGAUCACAUGAGGAUCACCCAUGUAGGAUAUCAGCUCGAUUAGAGCUGAGAAGGACAUAGCUGCG [ExNG3/1-A1] (Eterna round: R96, puzzle: Exclusion NG 3) | 103 | 18.2 | 17.5 | – | – | –
ACAUGAGGAUCACCCAUGUCUGGCUGGUCCGCUCCGGCUGUUGAGGAUAUAGCUCGGUGUCCGCGCUAGAAGGUGAGGGCUGGC [Aenatbe mod 34] (Eterna round: R96, puzzle: Exclusion NG 3) | 32.4 | 19.5 | 31.9 | – | – | –
AUAUUACAUGAGGAUCACCCAUGUGAGGAUAUGGAGCGCGACCGCCCGGUCGCGUACACCAGAAGGCGCGGGCG [1st #57] (Eterna round: R97, puzzle: Exclusion 1) | 46.2 | – | 22.3 | – | – | –
AUAAUGCAAGCAUGGUCCCACAUGAGGAUCACCCAUGUGUUCGUCUUAUAGGCUGCUGUGGCUUUUGCCUCGUUGGC [LRO Sensor-off var1-10 loose mod of D91 from Mat747] (Eterna round: R97, puzzle: Sensor, turn-off variant 1) | 74.3 | – | 78.5 | – | – | –
AAUUAAUAUCAGGAUAUGACGUGCUGCGGCACGUCAGAAGGGAUGACAUGAGGAUCACCCAUGUGAUCAAUUAA [E6/1-A3] (Eterna round: R97, puzzle: Exclusion 6) | 114 | – | 22.1 | – | – | –
CCAGCGUAUGUGAGGAUAUGCUGGUCCUUGGAUCAGCAGAAGGCACAUGAGGAUCACCCAUGUGGUGUCGUUGG [JL bmx4 3.45] (puzzle: Brourd's mod of Exclusion 4) | – | – | – | – | 149 | –
AUAUCACAUGAGGAUCACCCAUGUCAGGAUAUGAUACUAUGUACUUCGGUACAUAGUAUCAGAAGGGAUAUGAA [Ex1-3: 66] (Eterna round: R96, puzzle: Exclusion 1) | 83.3 | 29.2 | 40.3 | – | – | –
GCUGGGUCAGGAUAUACAGGGUCGAAAGAUCUGUGAUACCUACAUGAGGAUCACCCAUGUAGAAGGGACUGGGC [ChP 11-04-2015 #10] (puzzle: Exclusion 2) | – | – | – | – | 14.2 | –
UGAAUACGUGUUAGGAUAUGGUUUGGUAUUUCGGGCUAGAAGGGACAUGAGGAUCACCCAUGUAAUUGAUAGGU [-16.2, -13.6 kcal, 27% A] (Eterna round: R97, puzzle: Brourd's mod of Exclusion 4) | 52.4 | – | 38.5 | – | – | –

Sequence | apparent KD of MS2 coat protein (input ligand: FMN 200 uM) [nM] | apparent KD of MS2 coat protein [1] [nM] | apparent KD of MS2 coat protein (input ligand: none) [nM] | apparent KD of MS2 coat protein [2] [nM] | apparent KD of MS2 coat protein [3] [nM] | apparent KD of MS2 coat protein [4] [nM]
CCACGACAUGAGGAUCACCCAUGUGAGGAUAUGGCCUGAAAAGCGUGAGCAGUUUGUAUCAGAAGGCGCGUGGG [salish99_ex1_r4_065] (Eterna round: R97, puzzle: Exclusion 1) | 79.1 | – | 53.8 | – | – | –
GGUGGACAUGAGGAUCACCCAUGUGAGGAUAUCGGCUAUCUACUCGCUGUCGGUUGCUCGAGAAGGCACAUUGU [Exclusion 1 V93] (puzzle: Exclusion 1) | – | – | – | – | 151 | –
CAAUGUGCUGAGGAUAUCUGCAGGUUGGGCCUGGGAGAAGGCGGCACAUGAGGAUCACCCAUGUGACCGAAAUA [EX6 A.17] (Eterna round: R97, puzzle: Exclusion 6) | 78.5 | – | 39.3 | – | – | –
AUACGUGAGAAGGAUAUCACACGCCAGAGGCGUUGAGAAGGUUUCACAUGAGGAUCACCCAUGUGCUCUUCCAG [Orlaa] (Eterna round: R97, puzzle: Exclusion 6) | 61.3 | – | 23.5 | – | – | –
CGAGCUGCUGUGAGGAUAUACCUAUGGAUACGUGGGUAGAAGGCACAUGAGGAUCACCCAUGUCCUGCAGCUCG [salish99_bmx4_r4_102] (Eterna round: R97, puzzle: Brourd's mod of Exclusion 4) | 313 | – | 51.7 | – | – | –
GAAUAGCAAGCGAGAUCCCACAUGAGGAUCACCCAUGUGCUCGUCUUAUAAAGUACUGUGACGAUAGUCACGGUACA [Mat - Sensor, turn-off var - Eli Mod - D13] (Eterna round: R97, puzzle: Sensor, turn-off variant 1) | 16.5 | – | 14.9 | – | – | –
AGCUGUGGCCGAGGAUAUGACAUGAGGAUCACCCAUGUACCAGAUUAGGCCUGGUAACAGGCUCAUCAGAAGGCGGUCUCAGCA [Eli eng2 - 016] (Eterna round: R96, puzzle: Exclusion NG 2) | 13.5 | 10.7 | 14.8 | – | – | –
AACUUCUGAGGAUAUACUUAGAUUUACAUGAGGAUCACCCAUGUUCCUCUUUGUAUAAAUGUAGAAGGCAGAAGAA [JL-ex5-4.38 Malcolm mod] (Eterna round: R97, puzzle: Exclusion 5) | 381 | – | 45.3 | – | – | –
CUCAUUUGUCAGGAUAUCGUGAGGCUAAUUAUACGAGAAGGGACGACAUGAGGAUCACCCAUGUGGUCUUUGAG [JR_Ex6_Sub082] (Eterna round: R97, puzzle: Exclusion 6) | 161 | – | 33.3 | – | – | –
GAAAAGGUAGGAUAUACGAAAAAAAAGGGUAAAAAAAAAACACAUGAGGAUCACCCAUGUAGAAGGACCAAAAG [salish99_ex2_r3_062] (puzzle: Exclusion 2) | – | – | – | 44.4 | 32.4 | 34
ACCUCACAUGAGGAUCACCCAUGUCAGGAUAUCCAACAUGCUCCCAGGACCAAGCAUAGGAGAAGGGACAUGCG (Eterna round: R97, puzzle: Exclusion 1) | 76.5 | – | 27.2 | – | – | –
AGUUGGCGAGGAUAUACAUGAGGAUCACCCAUGUGGGAGAUACUAGUGAGGUCGAUUAGUAGAAGGCGCUGACA [Mat X3R4 m8] (Eterna round: R97, puzzle: Exclusion 3) | 566 | – | 209 | – | – | –
UGUUGUUCAGGAUAUGGUGUGUUGUACAUGAGGAUCACCCAUGUGGGUCCUGGUUUGGCGUCAGAAGGGAAUGUUG [salish99_ex5_r4_118] (Eterna round: R97, puzzle: Exclusion 5) | 482 | – | 778 | – | – | –
CAGUACUGAGGAUAUACAUGAGGAUCACCCAUGUGUCCUAGCUAGGAUACUAGCAUUAGUAGAAGGCAGUACUG [Fiskers Ex 3 828 mod 7] (puzzle: Exclusion 3) | – | – | – | – | 19.8 | –
GGUGGACAUGAGGAUCACCCAUGUGAGGAUAUCGGCUGGCUAGUGGCUGACGGCUGCUCGAGAAGGCGCAUUGU [Exclusion 1 V86] (puzzle: Exclusion 1) | – | – | – | – | 54.7 | –
CGCCGAGUGUUAGGAUAUCACAAGCAUAAGCGGUGAGAAGGAACAUGAGGAUCACCCAUGUACUGUCCCAUCGGGACAGGUUUC [Ribeon] (Eterna round: R96, puzzle: Exclusion NG 1) | 170 | 54 | 70.8 | – | – | –
ACAAGCUUUUUGCUCGUUUACAUGAGGAUCACCCAUGUGUCUUCACGCCCGGGCCCGGGCAAGCCCGGGCCCGGGCG [-47, -77, A 16%] (Eterna round: R97, puzzle: Sensor, turn-off variant 1) | 45.6 | – | 45 | – | – | –
GGUGAGAGCAAGGAUAUGCAGAAGUGAGAAAGUGCAGAAGGUGCUACAUGAGGAUCACCCAUGUUGGAUGUGUU [JR_E6_Sub015] (puzzle: Exclusion 6) | – | – | – | – | 34.2 | –
